These results are taken from patent publication CN118307667A.

The target of the test is RSV A/B株的融合蛋白的融合前和融合后构象. The experiment in a line: ELISA, F protein coated 50 ng/well, anti-human IgG-Fc-HRP.

B1: RSFP2B6抗体 (antibody, V domains shown)
VH: QVQLVQSGGALAQPGRSLRLSCTTSGFTFGDYAVNWVRQAPGKGLEWVGIVRTEPYGGTTEYSASVKGRFIISRDDSKGIAYLQMNSLKTEDTGVYYCSQPILNVDVWGQGTTVTVSS
VL: NFMLTQPHSVSESPGKTVTISCTRSSGSFGSDYVQWYQQRPGSAPNTVIYENNQRPSGVPDRFSGSIDSSSNSASLTISGLKTEDEADYYCQSYDDNTPWVFGGGTELTVL
On to B1, for which the EC50 – broadly, the concentration needed to bring the measured effect to its halfway point – lay within 0.292 to 0.603 µg/mL.
